Assay results: article PMC4476568
Several values for one entry are separate records, joined by “and”; a condition that tells them apart may be missing. Identical values can stand only once.

Molecular target: EGFP-labeled nuclear transport factor 2 (NTF2) (human) (UniProt P61970)
Experiment: fluorescence fluctuation spectroscopy brightness analysis (MSQ with z-scan FFS); living E. coli cells in agarose; two-photon excitation at 1000 nm, ~1 mW, focus at the geometric centre of the cell; MSQ-curve fit to Eqs 14 and 22; normalized brightness against EGFP in solution, corrected for cell geometry

Substance: EGFP-labeled nuclear transport factor 2 (NTF2) (from UniProt P61970 1-127) (natural protein; other documents disagree on this pair)
- stoichiometry N: 2.1 and 1.94
